Data reported in the supplement of paper PMC7877785.
± gives the uncertainty stated by the source.

Experiment: self-splicing fitness, log relative to wild type (ln ratio); higher = more splicing; Tetrahymena group I intron in knt gene, E. coli kanamycin selection, DiMSum; sequences stand for … in CUCUCU…GGAGGGAAAAGUUAUCAGGCAUGCACCUGGUAGCUAGUCUUUAAACCAAUAGAUUGCAUCGGUUUAAAAGGCAAGACCGUCAAAUUGCGGGAAAGGGGUCAACAGCCGUUCAGUACCAAGUCUCAGGGGAAACUUUGAGAUGGCCUUGCAAAGGGUAUGGUAAUAAGCUGACGGACAUGGUCCUAACCACGCAGCCAAGUCCUAAGUCAACAGAUCUUCUGUUGAUAUGGAUGCAGUUCACAGACUAAAUGUCGGUCGGGGAAGAUGUAUUCUUCUCAUAAGAUAUAGUCGGACCUCUCCUUAAUGGGAGCUAGCGGAUGAAGUGAUGCAACACUGGAGCCGCUGGGAACUAAUUUGUAUGCGAAAGUAUAUUGAUUAGUUUUGGAGUACUCGUGGUCG
Summary of the method: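 Pooled colonies went to amplicon sequencing on an Illumina HiSeq 2500 after six replicate transformations. The plates were LB agar with 100 μg/mL carbenicillin, 50 μM IPTG and 0.2% rhamnose, with or without 25 μg/mL kanamycin, incubated overnight at 37°C or 30°C. The E. coli BL21(DE3) library had all eight P1ex-region intron nucleotides randomised, the intron placed in the knt kanamycin-resistance gene on pET-22b(+). DiMSum fitness is the error-weighted combination of replicate fold changes, kanamycin against none, normalised to wild type.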

Sequence | self-splicing fitness (ln) (30 °C) | self-splicing fitness (ln) (37 °C)
GACGAGCAAUAUUACGGAGC | -4.4 ± 0.39 | -2.27 ± 0.22
GACGAGCAAUAUUACGGAUA | -2.52 ± 0.24 | -2.55 ± 0.44
GACGAGCAAUAUUACGGCCA | – | 0.241 ± 0.29
GACGAGCAAUAUUACGGCCU | -1.85 ± 0.096 | -1.12 ± 0.14
GACGAGCAAUAUUACGGCUC | -2.6 ± 0.12 | -1.41 ± 0.15
GACGAGCAAUAUUACGGCUG | -1.82 ± 0.13 | -1.13 ± 0.13
GACGAGCAAUAUUACGGGGA | -3.12 ± 0.22 | -2.37 ± 0.29
GACGAGCAAUAUUACGGUCC | -3.83 ± 0.25 | -1.74 ± 0.23
GACGAGCAAUAUUACGUAUU | -3.7 ± 0.21 | -2.44 ± 0.18
GACGAGCAAUAUUACGUGAA | – | -2.29 ± 0.32
GACGAGCAAUAUUACGUGCC | -1.56 ± 0.14 | -1.97 ± 0.26
GACGAGCAAUAUUACGUGUA | -5.08 ± 0.25 | -2.49 ± 0.14
GACGAGCAAUAUUACGUUGG | -3.34 ± 0.12 | -3.25 ± 0.22
GACGAGCAAUAUUACGUUUA | -2.06 ± 0.14 | -0.752 ± 0.12
GACUAGCAAUAUUACGAAUG | -2.65 ± 0.18 | -1.93 ± 0.17
GACUAGCAAUAUUACGACGG | -2.2 ± 0.24 | -1.78 ± 0.35
GACUAGCAAUAUUACGAGCA | -1.51 ± 0.14 | -0.564 ± 0.13
GACUAGCAAUAUUACGAUAA | -0.678 ± 0.12 | -0.492 ± 0.13
GACUAGCAAUAUUACGCUCC | -3.46 ± 0.47 | –
GACUAGCAAUAUUACGCUGC | -3.53 ± 0.21 | -2.85 ± 0.28
GACUAGCAAUAUUACGCUGG | -3.18 ± 0.21 | -2.13 ± 0.25
GACUAGCAAUAUUACGGAAA | -1.53 ± 0.14 | -0.989 ± 0.14
GACUAGCAAUAUUACGGGGU | -4.18 ± 0.17 | -2.91 ± 0.15
GACUAGCAAUAUUACGGUAU | -1.3 ± 0.074 | -0.543 ± 0.092
GACUAGCAAUAUUACGGUGG | -1.91 ± 0.072 | -1.27 ± 0.082

Sequence | self-splicing fitness (ln) (30 °C) | self-splicing fitness (ln) (37 °C)
GACUAGCAAUAUUACGUAGU | -2.84 ± 0.18 | -2.28 ± 0.27
GACUAGCAAUAUUACGUCAU | -2.73 ± 0.17 | -1.1 ± 0.17
GACUAGCAAUAUUACGUCCG | – | -1.5 ± 0.31
GACUAGCAAUAUUACGUGAG | -2.07 ± 0.1 | -1.54 ± 0.14
GACUAGCAAUAUUACGUGCC | -1.75 ± 0.12 | -1.58 ± 0.18
GACUAGCAAUAUUACGUGCG | -1.3 ± 0.073 | -0.236 ± 0.091
GACUAGCAAUAUUACGUGGG | -3.35 ± 0.13 | -1.96 ± 0.098
GACUAGCAAUAUUACGUUGG | -2.85 ± 0.22 | -2.42 ± 0.39
GAGAAGCAAUAUUACGAAAC | -2.29 ± 0.36 | -1.71 ± 0.48
GAGAAGCAAUAUUACGCAAC | -1.48 ± 0.14 | -2.11 ± 0.26
GAGAAGCAAUAUUACGCGCU | -2.03 ± 0.13 | -1.49 ± 0.13
GAGAAGCAAUAUUACGGCAA | -0.843 ± 0.084 | 0.00427 ± 0.11
GAGAAGCAAUAUUACGGCCU | -0.28 ± 0.07 | 0.2 ± 0.089
GAGAAGCAAUAUUACGGCUU | -3.58 ± 0.33 | -1.75 ± 0.24
GAGAAGCAAUAUUACGGGUU | -1.88 ± 0.11 | -1.87 ± 0.16
GAGAAGCAAUAUUACGGUGA | -1.88 ± 0.15 | -0.755 ± 0.15
GAGAAGCAAUAUUACGUAGU | -2.89 ± 0.094 | -1.39 ± 0.097
GAGAAGCAAUAUUACGUGAA | -1 ± 0.1 | -1.23 ± 0.17
GAGAAGCAAUAUUACGUGCU | -2.51 ± 0.21 | -0.848 ± 0.17
GAGAAGCAAUAUUACGUUAG | -2.54 ± 0.19 | -2.08 ± 0.19
GAGCAGCAAUAUUACGAAGA | -2.69 ± 0.45 | -1.14 ± 0.27
GAGCAGCAAUAUUACGAAGC | -3.93 ± 0.25 | -2.21 ± 0.15
GAGCAGCAAUAUUACGACAA | -1.41 ± 0.3 | -2.31 ± 0.2
GAGCAGCAAUAUUACGACCC | 0.0587 ± 0.081 | -0.0685 ± 0.098
GAGCAGCAAUAUUACGACUA | -0.925 ± 0.097 | 0.275 ± 0.11

Sequence | self-splicing fitness (ln) (30 °C) | self-splicing fitness (ln) (37 °C)
GAGCAGCAAUAUUACGAGCG | -2.3 ± 0.092 | -1.11 ± 0.11
GAGCAGCAAUAUUACGAGGA | -2.48 ± 0.17 | -2.89 ± 0.22
GAGCAGCAAUAUUACGAUUG | -2.17 ± 0.083 | -2.41 ± 0.17
GAGCAGCAAUAUUACGCAUA | -1.11 ± 0.099 | -0.606 ± 0.14
GAGCAGCAAUAUUACGCGUG | -1.92 ± 0.15 | -1.66 ± 0.18
GAGCAGCAAUAUUACGCUCU | -3.46 ± 0.28 | –
GAGCAGCAAUAUUACGCUGA | -2.8 ± 0.19 | -2.13 ± 0.2
GAGCAGCAAUAUUACGGAAG | -3.65 ± 0.21 | -3.24 ± 0.26
GAGCAGCAAUAUUACGGCAU | -0.308 ± 0.081 | -0.549 ± 0.094
GAGCAGCAAUAUUACGGCUA | -0.634 ± 0.1 | -0.0591 ± 0.15
GAGCAGCAAUAUUACGGGUC | -3.07 ± 0.18 | -1.91 ± 0.17
GAGCAGCAAUAUUACGGUGU | -2.84 ± 0.093 | -1.56 ± 0.09
GAGCAGCAAUAUUACGUAAA | -1.89 ± 0.14 | -1.13 ± 0.14
GAGCAGCAAUAUUACGUACC | -0.46 ± 0.12 | -0.225 ± 0.14
GAGCAGCAAUAUUACGUCGG | -4.09 ± 0.31 | -3.07 ± 0.28
GAGCAGCAAUAUUACGUGAG | -2.06 ± 0.069 | -0.264 ± 0.07
GAGCAGCAAUAUUACGUUGU | -3.37 ± 0.14 | -2.16 ± 0.15
GAGCAGCAAUAUUACGUUUC | -3.37 ± 0.14 | -2.2 ± 0.22
GAGGAGCAAUAUUACGAAGA | -2.19 ± 0.24 | -1.95 ± 0.32
GAGGAGCAAUAUUACGACCU | -2.45 ± 0.41 | –
GAGGAGCAAUAUUACGAUCC | -1.49 ± 0.31 | -1.12 ± 0.27
GAGGAGCAAUAUUACGCCAA | – | -1.6 ± 0.48
GAGGAGCAAUAUUACGCCAU | -3.46 ± 0.47 | -2.37 ± 0.41
GAGGAGCAAUAUUACGCCUA | -1.68 ± 0.27 | -0.955 ± 0.16
GAGGAGCAAUAUUACGCGUU | -3.99 ± 0.39 | -2.2 ± 0.36

Sequence | self-splicing fitness (ln) (30 °C) | self-splicing fitness (ln) (37 °C)
GAGGAGCAAUAUUACGCUCC | – | -0.714 ± 0.48
GAGGAGCAAUAUUACGCUGA | -2.84 ± 0.49 | -2.07 ± 0.34
GAGGAGCAAUAUUACGGACG | -3.42 ± 0.36 | -0.785 ± 0.49
GAGGAGCAAUAUUACGGACU | -1.49 ± 0.14 | -1.22 ± 0.28
GAGGAGCAAUAUUACGGAGU | – | -2.57 ± 0.34
GAGGAGCAAUAUUACGGAUG | -3.77 ± 0.27 | -2.48 ± 0.24
GAGGAGCAAUAUUACGGGCC | -2.4 ± 0.4 | –
GAGGAGCAAUAUUACGUACA | -3.14 ± 0.32 | -0.612 ± 0.2
GAGGAGCAAUAUUACGUGCA | -3.41 ± 0.34 | -1.31 ± 0.17
GAGGAGCAAUAUUACGUGCU | -4.62 ± 0.42 | -2.32 ± 0.21
GAGGAGCAAUAUUACGUUCG | -1.89 ± 0.2 | -1.27 ± 0.23
GAGGAGCAAUAUUACGUUCU | -2.2 ± 0.2 | -2.4 ± 0.33
GAGGAGCAAUAUUACGUUGG | – | -1.46 ± 0.42
GAGUAGCAAUAUUACGACGC | -0.488 ± 0.12 | 0.137 ± 0.14
GAGUAGCAAUAUUACGAGCA | -2.06 ± 0.21 | 0.532 ± 0.14
GAGUAGCAAUAUUACGAGGC | – | -2.86 ± 0.44
GAGUAGCAAUAUUACGAUAC | -2.31 ± 0.21 | -2.92 ± 0.24
GAGUAGCAAUAUUACGCAGA | -3 ± 0.26 | -2.41 ± 0.31
GAGUAGCAAUAUUACGCCGC | -2.89 ± 0.25 | -1.29 ± 0.33
GAGUAGCAAUAUUACGCCGG | -1.99 ± 0.35 | –
GAGUAGCAAUAUUACGCCGU | – | -1.08 ± 0.27
GAGUAGCAAUAUUACGCGAU | -2.26 ± 0.21 | -2.21 ± 0.39
GAGUAGCAAUAUUACGCGCA | -1.93 ± 0.15 | -0.701 ± 0.2
GAGUAGCAAUAUUACGCGUU | -2.44 ± 0.095 | -0.8 ± 0.09
